This is an account of results in the DeepSol protein solubility set.

The data set in a line: soluble on expression in E. coli; label from the status in PepcDB or PDB records.
As to “MKPSLRIYRYPPPPSQRTPCALTIGNFDGVHLGHQAILARVRQEARARGLVPAVMTFEPHPREYFATLNRRPELAPTRISGLRDKLQALAAAGIEQVAVERFDARLAEMSANAFIEDLLVAGLQTRWLLVGEDFRYGHKRSGDIDLLREAGLAHGFEVCTLADITDRQGHRISSSEVRTALAVGDLDRAAQLLGQPFHISGHVIHGRKLGRELGFPTMNLRVAPRCATRSGIYVVRVLGLQDRPLPAVASLGVRPTVEDRGRVLLEAHLLDESLDAYGKLVRVEFLHKLRDEEKFADLPSLTAAIAQDAQNARAYFAVHGL”, the “soluble on expression in E. coli” value is recorded as “not soluble”.
“MKPSSPSRSKGHAKARRKTREELNQEARDRKRQKKRRGHAPGSRAAGGNNTSGSKGQNAPKDPRIGSKTPIPLGVTEKVTKQHKPKSEKPMLSPQAELELLETDERLDALLERLEAGETLSAEEQSWVDAKLDRIDELMQKLGLSYDDDEEEEEDEKQEDMMRLLRGN”: the “soluble on expression in E. coli” value is “not soluble”.
The same measure for “MKPTERRILLGRIVGAFGVKGELKLESWTEPRSAIFRYQPWIVRTPSGQESVLSGVRGRDQGKNLIAVFPDITDRDTVEAMHGTEIYVARSALPPPKPDEYYWVDLEGLQVETVEGVKLGTVSHLFSTGSNDVVVVRGDRERMIPFVLPEYVKSVDFEANLIVVDWDPDFLEHHHHHH”: “soluble”; for “MKPTLFLLAAGMGSRYGGLKQLDGLGPNGETIMDYSIYDAINAGFGKLVFVIRKDFEQDFREKIISKYEGHIPCELVFQSIDDLPEGFTCPADRTKPWGTNHAVMMGADVISEPFAVINCDDFYGRDSFQVMGKFLSALPENSKNVYSMVGFRVGNTLSESGTVSRGICSTDANNLLTSVVERTKIQRLDGEVKYIDDNGEWTATPDTTPVSMNFWGFTPDYFAYSEEFFKTFLSDPKNMENLKSEFFIPLMVDKLINDGTATVEVLDTTSKWFGVTYPEDRQSVVDKIQALVDAGEYPAKLF”: “not soluble”.
The same measure for “MKPVKVGICGLGTVGGGTFNVLQRNAEEIARRAGRGIEVAQIAVRTPNPNCQIAGTPTTSDVFAVATNPEIDIVVELIGGYTIARDLVLKAIEHGKHVVTANKALIAVHGNEIFAKAREKGVIVAFEAAVAGGIPVIKAIREGLSANRINWVAGIINGTGNFILTEMREKGRTFPDVLAEAQALGYAEADPTFDVEGIDAAHKLTILASIAFGIPLQFDKAYTEGITKLTTADVNYAEALGYRIKHLGVARSTAQGIELRVHPTLIPADRLIANVNGVMNAVMVNGDASGSTLFYGAGAGMEPTASSVVADLVDVVRAMTSDPENRVPHLAFQPDSLSAHPILPIEACESAYYLRIQAKDHPGVLAQVASILSERGINIESIMQKEVEEHDGLVPMILLTHRVVEQRINDAIQALEALQDVVGPVVRIRVEHLN”: “not soluble”; for “MKQIKNTHYEGERPLFASHGLYLEEVTIHAGESALKECSDIEAVNCRFEGKYPFWHNDGFVVKNCLFTEGARAALWYSRNLKMKDTLVEAPKMFREMDGVELENVQLPNALETLWYCRNVELNNVKIDKGDYLFIHGEDIRIKNFVLNGNYSFQYCKNVEIRHAEIHSKDAFWNTENVTVYDSVLDGEYLGWHSKNLRLVNCKISGTQPLCYAHDLIMENCTMADDADLAFEHSSVKATIKGPVHSVKNPRTGNIVAESFGTIILDENLKAPGNCELKLWDGLTCFD”: “soluble”; for “MKQKEMIVMSILVKSVSFDDYRNTQLNEKCANFLQSAEMAKLQESQDHIEKVEALVFERDGLRVAQAIVVYKKSFRVFKKALLLHGPLLDYHSSCWFDREILEALILYLRKKNIATLSIHPYLTNLIRNEKLENIEVDKARDVLEVFETLGFEHSLDSEQSLVVNQMFVKSIESFASSDEILAAFSPSLKRDLKKFTALNVKTEELDEHQLDQFYDILSRTAERKGFSVHPLVYFQNLKKYFGKSAKFMLAYLDCPAYLAYLDENIQSFEAKIQDLKEGPQKKRTKGQIADAEDQLRSYYKRLEQFKSYQIKTDKLPLSAYLFMDYGPEIVSFYGGNDEAYLNFGGAVLLHWEMLKYAKSKSKKHFNFYGTIETEAASSGKGNFNFKRQFGGQLETLVGSFDKTLNPFYDILKKTLGKD”: “not soluble”.
With “MKQKIVLATGNKGKVKEMADVLSDFGFEVIAQTDLGIESPEETGLTFVENALLKARYASEKSGLPAIADDSGLVVSALNGAPGLYSARYAGEEGNDAKNREKLLAELAHIAQEQRQAKFVSCIVFLQHPTDPSPIIAEGECCGVIGFEEKGENGFGYDSLFFSPEQGCTFAELETAEKKKISHRAKALSVLKSKL” the entry was “not soluble”.
With “MKQKNENAPRPGGAGRKPKADPAVFRYSISFNAIDHARFLALFDQSGMRTKAHFITARIFGEPFKVIKIDKAAVEYYTRLTALYSQYRGIAVNYNQVVKALNTNFSEKKALAFLYKLEKATIELADLNRQIIELTREFETRWLQR”, the “soluble on expression in E. coli” value is recorded as “not soluble”.
The same measure for “MKQKVVSIGDINVANDLPFVLFGGMNVLESRDLAMRICEHYVTVTQKLGIPYVFKASFDKANRSSIHSYRGPGLEEGMKIFQELKQTFGVKIITDVHEPSQAQPVADVVDVIQLPAFLARQTDLVEAMAKTGAVINVKKPQFVSPGQMGNIVDKFKEGGNEKVILCDRGANFGYDNLVVDMLGFSIMKKVSGNSPVIFDVTHALQCRDPFGAASGGRRAQVAELARAGMAVGLAGLFIEAHPDPEHAKCDGPSALPLAKLEPFLKQMKAIDDLVKGFEELDTSK”: “soluble”.
Turning to “MKQLATPFQEYSQKYENIRLERDGGVLLVTVHTEGKSLVWTSTAHDELAYCFHDIACDRENKVVILTGTGPSFCNEIDFTSFNLGTPHDWDEIIFEGQRLLNNLLSIEVPVIAAVNGPVTNHPEIPVMSDIVLAAESATFQDGPHFPSGIVPGDGAHVVWPHVLGSNRGRYFLLTGQELDARTALDYGAVNEVLSEQELLPRAWELARGIAEKPLLARRYARKVLTRQLRRVMEADLSLGLAHEALAAIDLGMESEQ”, the “soluble on expression in E. coli” value was “soluble”.
The same measure for “MKQLSFLPGEMTPQDRRLIQRALRALDRHLHEPGVAFTSTHAVREWLRLHMAALEREEFRVLYLDNQNQLIAHETLFTGTINRTEVHPREVVKRALHFNAAAVILAHNHPSGETTPSQADKTLTQRLVQVLQLVDIRVPDHLIVGGRQIYSFAEHGLL”: “not soluble”.
With “MKQPFTQAIENAELAIRNADERNDIFSELLEGLGVGPVAGEVLLGGLNASPKLMQHAEQELIEEVQRRRQQQHQLQGVQGKRRKRPTMMRGMVILEHHHHHH” the entry was “not soluble”.
With “MKRALGVSVYPDHSDINQDKAYLKKASECGFTRIFMSMLEVTDGKEAVQKKFKELISYAKNLGFETILDVVPSIFDELEISYDDLTFFSELGADGIRLDTGFDGNKEAMLTFNPFGVAIELNMSNDVAYLDNILTYEANRPFLYGCHNFYPQAGTALPYDFFEKCSIRFKKEGIRTAAFISSQVGEIGPWDVNDGLPTLEMHRQLPVTVQAKHLFATNLIDDVVIGNAYASNEELEALGQLNRYQTELTIVFEEATSEIEKEIVTKNQHFRRGDITQQMIRSTEVRKKYKNEVNPPHDNQAMLQPGDVVVGNDAFGKYKNELQVVLEPHQDSRKNRVGRIIEEELVLLEFIKPWTKFRFIEK” the entry was “not soluble”; with “MKRASVWMLLCLFFMLSGCANPSFPPVVDSLSVVISLDVKAETVTFLNAKNGSKIARWNINEPFQGGALSPDGRTLLLYGRDLDRVYRYDLAGGKPLSEWKTGNGIVSAAPSPDGRTWFFGDSTHHAVRVVSRGGKEIARLSVGRSPMTLLVNRQGTELYAIDFQDGRAFVIDASRLRVIRSFSVPKFALGGLMRERRGELWVGGHGSGNKVEKNIHVYSLRDGRLLRTIAAPVMPVDFVETGRGVFVLSHGSNTVYQFLPSGKRLNSVLVGANPFAMEAAGSRLYIASYDSDEIIVVDEATLRPLARWKTGDGPLQLFIREGRT”, “not soluble”; with “MKREQILSLIAEIDDLLNALNMVVKEIEEKKREFSDKEPDQFILRALGSLLHDFYTIIEDIFELISSEMNGVRLDSFDWHKRLLNKMTLEIPGLRPAVISKRLKEMLDEYLRFRHVFRNVYGYLLQWERMKPLLEKAGAVYERFEEEIERFKDFLRELAEKM”, “not soluble”.
